Measured values from the Human Domainome abundance scans (Beltran et al. 2025).
± gives the uncertainty stated by the source.

B1: Triacylglycerol hydrolase DDHD2, residues 389 to 447; numbered along this chain, O94830 (parent)
chain: TLEEDLKKLQLSEFFDIFEKEKVDKEALALCTDRDLQEIGIPLGPRKKILNYFSTRKNS

Variants of: B1
Experiment: abundance fitness (aPCA) (normalised: wild type 0, dead -1); higher = more abundant; growth selection in yeast, the domain comes from the species named
Details: Homo sapiens

Row | Variant | abundance fitness
1 | TLEEDLKKLQLSEFFDIFEKEKVDKEALALCTDRDPQEIGIPLGPRKKILNYFSTRKNS | -0.473 ± 0.12
2 | TLEEDLKKLQLSEFFDIFEKEKVDKEALALCTDRDDQEIGIPLGPRKKILNYFSTRKNS | -0.565 ± 0.13
3 | TLEEDLKKLQLSEFFDIFEKEKVDKEALALCTDRDGQEIGIPLGPRKKILNYFSTRKNS | -0.322 ± 0.066
4 | TLEEDLKKLQLSEFFDIFEKEKVDKEALALCTDRDIQEIGIPLGPRKKILNYFSTRKNS | -0.465 ± 0.11
5 | TLEEDLKKLQLSEFFDIFEKEKVDKEALALCTDRDHQEIGIPLGPRKKILNYFSTRKNS | -0.352 ± 0.17
6 | TLEEDLKKLQLSEFFDIFEKEKVDKEALALCTDRDNQEIGIPLGPRKKILNYFSTRKNS | -0.267 ± 0.098
7 | TLEEDLKKLQLSEFFDIFEKEKVDKEALALCTDRDMQEIGIPLGPRKKILNYFSTRKNS | -0.164 ± 0.08
8 | TLEEDLKKLQLSEFFDIFEKEKVDKEALALCTDRDEQEIGIPLGPRKKILNYFSTRKNS | -0.363 ± 0.1
9 | TLEEDLKKLQLSEFFDIFEKEKVDKEALALCTDRDKQEIGIPLGPRKKILNYFSTRKNS | -0.06 ± 0.086
10 | TLEEDLKKLQLSEFFDIFEKEKVDKEALALCTDRDFQEIGIPLGPRKKILNYFSTRKNS | -0.797 ± 0.15
11 | TLEEDLKKLQLSEFFDIFEKEKVDKEALALCTDRDCQEIGIPLGPRKKILNYFSTRKNS | -0.363 ± 0.11
12 | TLEEDLKKLQLSEFFDIFEKEKVDKEALALCTERDLQEIGIPLGPRKKILNYFSTRKNS | -0.058 ± 0.099
13 | TLEEDLKKLQLSEFFDIFEKEKVDKEALALCTRRDLQEIGIPLGPRKKILNYFSTRKNS | -0.576 ± 0.078
14 | TLEEDLKKLQLSEFFDIFEKEKVDKEALALCTARDLQEIGIPLGPRKKILNYFSTRKNS | -0.107 ± 0.075
15 | TLEEDLKKLQLSEFFDIFEKEKVDKEALALCTQRDLQEIGIPLGPRKKILNYFSTRKNS | -0.446 ± 0.11
16 | TLEEDLKKLQLSEFFDIFEKEKVDKEALALCTVRDLQEIGIPLGPRKKILNYFSTRKNS | -0.693 ± 0.083
17 | TLEEDLKKLQLSEFFDIFEKEKVDKEALALCTIRDLQEIGIPLGPRKKILNYFSTRKNS | -0.821 ± 0.16
18 | TLEEDLKKLQLSEFFDIFEKEKVDKEALALCTCRDLQEIGIPLGPRKKILNYFSTRKNS | -0.675 ± 0.14
19 | TLEEDLKKLQLSEFFDIFEKEKVDKEALALCTMRDLQEIGIPLGPRKKILNYFSTRKNS | 0.124 ± 0.095
20 | TLEEDLKKLQLSEFFDIFEKEKVDKEALALCTHRDLQEIGIPLGPRKKILNYFSTRKNS | -0.283 ± 0.12
21 | TLEEDLKKLQLSEFFDIFEKEKVDKEALALCTWRDLQEIGIPLGPRKKILNYFSTRKNS | -0.51 ± 0.1
22 | TLEEDLKKLQLSEFFDIFEKEKVDKEALALCTPRDLQEIGIPLGPRKKILNYFSTRKNS | -0.659 ± 0.11
23 | TLEEDLKKLQLSEFFDIFEKEKVDKEALALCTFRDLQEIGIPLGPRKKILNYFSTRKNS | -0.609 ± 0.12

Row | Variant | abundance fitness
24 | TLEEDLKKLQLSEFFDIFEKEKVDKEALALCTYRDLQEIGIPLGPRKKILNYFSTRKNS | -0.498 ± 0.12
25 | TLEEDLKKLQLSEFFDIFEKEKVDKEALALCTGRDLQEIGIPLGPRKKILNYFSTRKNS | -0.199 ± 0.069
26 | TLEEDLKKLQLSEFFDIFEKEKVDKEALALCTTRDLQEIGIPLGPRKKILNYFSTRKNS | -0.238 ± 0.093
27 | TLEEDLKKLQLSEFFDIFEKEKVDKEALALCTLRDLQEIGIPLGPRKKILNYFSTRKNS | -0.339 ± 0.069
28 | TLEEDLKKLQLSEFFDIFEKEKVDKEALALCTNRDLQEIGIPLGPRKKILNYFSTRKNS | -0.367 ± 0.1
29 | TLEEDLKKLQLSEFFDIFEKEKVDKEALALCTKRDLQEIGIPLGPRKKILNYFSTRKNS | -0.489 ± 0.1
30 | TLEEDLKKLQLSEFFDIFEKEKVDKEALALCTSRDLQEIGIPLGPRKKILNYFSTRKNS | -0.235 ± 0.07
31 | TLEEDLKKLQLSEFFDIFEKEKVDKEALALCTDKDLQEIGIPLGPRKKILNYFSTRKNS | -0.087 ± 0.095
32 | TLEEDLKKLQLSEFFDIFEKEKVDKEALALCTDVDLQEIGIPLGPRKKILNYFSTRKNS | 0.072 ± 0.07
33 | TLEEDLKKLQLSEFFDIFEKEKVDKEALALCTDGDLQEIGIPLGPRKKILNYFSTRKNS | 0.201 ± 0.065
34 | TLEEDLKKLQLSEFFDIFEKEKVDKEALALCTDYDLQEIGIPLGPRKKILNYFSTRKNS | 0.367 ± 0.093
35 | TLEEDLKKLQLSEFFDIFEKEKVDKEALALCTDLDLQEIGIPLGPRKKILNYFSTRKNS | -0.001 ± 0.063
36 | TLEEDLKKLQLSEFFDIFEKEKVDKEALALCTDNDLQEIGIPLGPRKKILNYFSTRKNS | 0.368 ± 0.089
37 | TLEEDLKKLQLSEFFDIFEKEKVDKEALALCTDSDLQEIGIPLGPRKKILNYFSTRKNS | 0.074 ± 0.061
38 | TLEEDLKKLQLSEFFDIFEKEKVDKEALALCTDPDLQEIGIPLGPRKKILNYFSTRKNS | -0.266 ± 0.1
39 | TLEEDLKKLQLSEFFDIFEKEKVDKEALALCTDWDLQEIGIPLGPRKKILNYFSTRKNS | -0.051 ± 0.092
40 | TLEEDLKKLQLSEFFDIFEKEKVDKEALALCTDADLQEIGIPLGPRKKILNYFSTRKNS | 0.216 ± 0.077
41 | TLEEDLKKLQLSEFFDIFEKEKVDKEALALCTDMDLQEIGIPLGPRKKILNYFSTRKNS | 0.32 ± 0.092
42 | TLEEDLKKLQLSEFFDIFEKEKVDKEALALCTDHDLQEIGIPLGPRKKILNYFSTRKNS | 0.085 ± 0.13
43 | TLEEDLKKLQLSEFFDIFEKEKVDKEALALCTDEDLQEIGIPLGPRKKILNYFSTRKNS | 0.463 ± 0.084
44 | TLEEDLKKLQLSEFFDIFEKEKVDKEALALCTDQDLQEIGIPLGPRKKILNYFSTRKNS | 0.059 ± 0.1
45 | TLEEDLKKLQLSEFFDIFEKEKVDKEALALCTDCDLQEIGIPLGPRKKILNYFSTRKNS | 0.011 ± 0.093
